How the values were obtained:
[1] = substrate: CC(C)(COP(=O)(O)OP(=O)(O)OC[C@H]1O[C@@H](n2cnc3c(N)ncnc32)[C@H](O)[C@@H]1OP(=O)(O)O)[C@@H](O)C(=O)NCCC(=O)NCCSC(=O)CCO; experiment: dehydration coupled to Ccr, UHPLC; type: biochemical, Metallosphaera sedula; settings: 100 mM Tris-HCl pH 7.8, 42°C, 1 mM NADPH, 50 mM NaHCO3, Ccr
Text: (§1) dehydration coupled to Ccr, UHPLC on Msed_2001

[2] = substrate: C[C@H](O)CC(=O)SCCNC(=O)CCNC(=O)[C@H](O)C(C)(C)COP(=O)(O)OP(=O)(O)OC[C@H]1O[C@@H](n2cnc3c(N)ncnc32)[C@H](O)[C@@H]1OP(=O)(O)O; experiment: dehydration coupled to Ccr, UHPLC; type: biochemical, Metallosphaera sedula; settings: 100 mM Tris-HCl pH 7.8, 42°C, 1 mM NADPH, 50 mM NaHCO3, Ccr
Text: as §1

[3] = substrate: C=CC(=O)SCCNC(=O)CCNC(=O)[C@H](O)C(C)(C)COP(=O)(O)OP(=O)(O)OC[C@H]1O[C@@H](n2cnc3c(N)ncnc32)[C@H](O)[C@@H]1OP(=O)(O)O; experiment: UHPLC of 3-hydroxypropionyl-CoA formed; type: biochemical, Metallosphaera sedula; settings: 100 mM Tris-HCl pH 7.8, 65°C
Text: UHPLC of 3-hydroxypropionyl-CoA formed on Msed_2001

[4] = substrate: CCCCC/C=C/C(=O)SCCNC(=O)CCNC(=O)[C@H](O)C(C)(C)COP(=O)(O)OP(=O)(O)OC[C@H]1O[C@@H](n2cnc3c(N)ncnc32)[C@H](O)[C@@H]1OP(=O)(O)O; experiment: UHPLC of 3-hydroxyoctanoyl-CoA formed; type: biochemical, Metallosphaera sedula; settings: 100 mM Tris-HCl pH 7.8, 65°C
Text: UHPLC of 3-hydroxyoctanoyl-CoA formed on Msed_2001

[5] = substrate: C/C=C/C(=O)SCCNC(=O)CCNC(=O)[C@H](O)C(C)(C)COP(=O)(O)OP(=O)(O)OC[C@H]1O[C@@H](n2cnc3c(N)ncnc32)[C@H](O)[C@@H]1OP(=O)(O)O; experiment: UHPLC of 3-hydroxybutyryl-CoA formed; type: biochemical, Metallosphaera sedula; settings: 100 mM Tris-HCl pH 7.8, 65°C
Text: UHPLC of 3-hydroxybutyryl-CoA formed on Msed_2001

[6] = substrate: C=CC(=O)SCCNC(=O)CCNC(=O)[C@H](O)C(C)(C)COP(=O)(O)OP(=O)(O)OC[C@H]1O[C@@H](n2cnc3c(N)ncnc32)[C@H](O)[C@@H]1OP(=O)(O)O; experiment: UHPLC of 3-hydroxypropionyl-CoA formed; type: biochemical, Metallosphaera sedula; settings: 100 mM Tris-HCl pH 7.8, 65°C; remark: listed apart in the source
Text: UHPLC of 3-hydroxypropionyl-CoA formed on Msed_0566

[7] = substrate: C=C(C)C(=O)SCCNC(=O)CCNC(=O)[C@H](O)C(C)(C)COP(=O)(O)OP(=O)(O)OC[C@H]1O[C@@H](n2cnc3c(N)ncnc32)[C@H](O)[C@@H]1OP(=O)(O)O; experiment: UHPLC of 3-hydroxy-2-methylpropionyl-CoA formed; type: biochemical, Metallosphaera sedula; settings: 100 mM Tris-HCl pH 7.8, 65°C
Text: UHPLC of 3-hydroxy-2-methylpropionyl-CoA formed on Msed_0566

[8] = substrate: CCCCC/C=C/C(=O)SCCNC(=O)CCNC(=O)[C@H](O)C(C)(C)COP(=O)(O)OP(=O)(O)OC[C@H]1O[C@@H](n2cnc3c(N)ncnc32)[C@H](O)[C@@H]1OP(=O)(O)O; experiment: UHPLC of 3-hydroxyoctanoyl-CoA formed; type: biochemical, Metallosphaera sedula; settings: 100 mM Tris-HCl pH 7.8, 65°C; remark: listed apart in the source
Text: UHPLC of 3-hydroxyoctanoyl-CoA formed on Msed_0566

[9] = substrate: C/C=C/C(=O)SCCNC(=O)CCNC(=O)[C@H](O)C(C)(C)COP(=O)(O)OP(=O)(O)OC[C@H]1O[C@@H](n2cnc3c(N)ncnc32)[C@H](O)[C@@H]1OP(=O)(O)O; experiment: UHPLC of 3-hydroxybutyryl-CoA formed; type: biochemical, Metallosphaera sedula; settings: 100 mM Tris-HCl pH 7.8, 65°C; remark: listed apart in the source
Text: UHPLC of 3-hydroxybutyryl-CoA formed on Msed_0566

[10] = substrate: C/C=C/C(=O)SCCNC(=O)CCNC(=O)[C@H](O)C(C)(C)COP(=O)(O)OP(=O)(O)OC[C@H]1O[C@@H](n2cnc3c(N)ncnc32)[C@H](O)[C@@H]1OP(=O)(O)O; experiment: UHPLC of 3-hydroxybutyryl-CoA formed; type: biochemical, Syntrophothermus lipocalidus; settings: 100 mM Tris-HCl pH 7.8, 42°C
Text: UHPLC of 3-hydroxybutyryl-CoA formed on Slip_2089

[11] = substrate: CC(C)(COP(=O)(O)OP(=O)(O)OC[C@H]1O[C@@H](n2cnc3c(N)ncnc32)[C@H](O)[C@@H]1OP(=O)(O)O)[C@@H](O)C(=O)NCCC(=O)NCCSC(=O)CCO; experiment: dehydration coupled to Ccr, UHPLC; type: biochemical, Syntrophothermus lipocalidus; settings: 100 mM Tris-HCl pH 7.8, 42°C, 1 mM NADPH, 50 mM NaHCO3, Ccr
Text: (§2) dehydration coupled to Ccr, UHPLC on Slip_2089

[12] = substrate: C[C@H](O)CC(=O)SCCNC(=O)CCNC(=O)[C@H](O)C(C)(C)COP(=O)(O)OP(=O)(O)OC[C@H]1O[C@@H](n2cnc3c(N)ncnc32)[C@H](O)[C@@H]1OP(=O)(O)O; experiment: dehydration coupled to Ccr, UHPLC; type: biochemical, Syntrophothermus lipocalidus; settings: 100 mM Tris-HCl pH 7.8, 42°C, 1 mM NADPH, 50 mM NaHCO3, Ccr
Text: as §2

[13] = substrate: C=CC(=O)SCCNC(=O)CCNC(=O)[C@H](O)C(C)(C)COP(=O)(O)OP(=O)(O)OC[C@H]1O[C@@H](n2cnc3c(N)ncnc32)[C@H](O)[C@@H]1OP(=O)(O)O; experiment: UHPLC of 3-hydroxypropionyl-CoA formed; type: biochemical, Syntrophothermus lipocalidus; settings: 100 mM Tris-HCl pH 7.8, 42°C
Text: UHPLC of 3-hydroxypropionyl-CoA formed on Slip_2089

[14] = substrate: C=C(C)C(=O)SCCNC(=O)CCNC(=O)[C@H](O)C(C)(C)COP(=O)(O)OP(=O)(O)OC[C@H]1O[C@@H](n2cnc3c(N)ncnc32)[C@H](O)[C@@H]1OP(=O)(O)O; experiment: UHPLC of 3-hydroxy-2-methylpropionyl-CoA formed; type: biochemical, Syntrophothermus lipocalidus; settings: 100 mM Tris-HCl pH 7.8, 42°C
Text: UHPLC of 3-hydroxy-2-methylpropionyl-CoA formed on Slip_2089

[15] = substrate: CCCCC/C=C/C(=O)SCCNC(=O)CCNC(=O)[C@H](O)C(C)(C)COP(=O)(O)OP(=O)(O)OC[C@H]1O[C@@H](n2cnc3c(N)ncnc32)[C@H](O)[C@@H]1OP(=O)(O)O; experiment: UHPLC of 3-hydroxyoctanoyl-CoA formed; type: biochemical, Syntrophothermus lipocalidus; settings: 100 mM Tris-HCl pH 7.8, 42°C
Text: UHPLC of 3-hydroxyoctanoyl-CoA formed on Slip_2089

[16] = substrate: C=CC(=O)SCCNC(=O)CCNC(=O)[C@H](O)C(C)(C)COP(=O)(O)OP(=O)(O)OC[C@H]1O[C@@H](n2cnc3c(N)ncnc32)[C@H](O)[C@@H]1OP(=O)(O)O; experiment: UHPLC of 3-hydroxypropionyl-CoA formed; type: biochemical, Nitrosopumilus maritimus; settings: 100 mM Tris-HCl pH 7.8, 30°C
Text: UHPLC of 3-hydroxypropionyl-CoA formed on Nmar_1308

[17] = substrate: C/C=C/C(=O)SCCNC(=O)CCNC(=O)[C@H](O)C(C)(C)COP(=O)(O)OP(=O)(O)OC[C@H]1O[C@@H](n2cnc3c(N)ncnc32)[C@H](O)[C@@H]1OP(=O)(O)O; experiment: UHPLC of 3-hydroxybutyryl-CoA formed; type: biochemical, Nitrosopumilus maritimus; settings: 100 mM Tris-HCl pH 7.8, 30°C
Text: UHPLC of 3-hydroxybutyryl-CoA formed on Nmar_1308

[18] = substrate: CC(C)(COP(=O)(O)OP(=O)(O)OC[C@H]1O[C@@H](n2cnc3c(N)ncnc32)[C@H](O)[C@@H]1OP(=O)(O)O)[C@@H](O)C(=O)NCCC(=O)NCCSC(=O)CCO; experiment: dehydration coupled to Ccr, UHPLC; type: biochemical, Nitrosopumilus maritimus; settings: 100 mM Tris-HCl pH 7.8, 30°C, 1 mM NADPH, 50 mM NaHCO3, Ccr
Text: (§3) dehydration coupled to Ccr, UHPLC on Nmar_1308

[19] = substrate: C[C@H](O)CC(=O)SCCNC(=O)CCNC(=O)[C@H](O)C(C)(C)COP(=O)(O)OP(=O)(O)OC[C@H]1O[C@@H](n2cnc3c(N)ncnc32)[C@H](O)[C@@H]1OP(=O)(O)O; experiment: dehydration coupled to Ccr, UHPLC; type: biochemical, Nitrosopumilus maritimus; settings: 100 mM Tris-HCl pH 7.8, 30°C, 1 mM NADPH, 50 mM NaHCO3, Ccr
Text: as §3

[20] = substrate: CCCCC/C=C/C(=O)SCCNC(=O)CCNC(=O)[C@H](O)C(C)(C)COP(=O)(O)OP(=O)(O)OC[C@H]1O[C@@H](n2cnc3c(N)ncnc32)[C@H](O)[C@@H]1OP(=O)(O)O; experiment: UHPLC of 3-hydroxyoctanoyl-CoA formed; type: biochemical, Nitrosopumilus maritimus; settings: 100 mM Tris-HCl pH 7.8, 30°C
Text: UHPLC of 3-hydroxyoctanoyl-CoA formed on Nmar_1308

B1: Msed_2001 (Metallosphaera sedula DSM 5348) (protein)
chain: MEFETIETKKEGNLFWITLNRPDKLNALNAKLLEELDRAVSQAESDPEIRVIIITGKGKAFCAGADITQFNQLTPAEAWKFSKKGREIMDKIEALSKPTIAMINGYALGGGLELALACDIRIAAEEAQLGLPEINLGIYPGYGGTQRLTRVIGKGRALEMMMTGDRIPGKDAEKYGLVNRVVPLANLEQETRKLAEKIAKKSPISLALIKEVVNRGLDSPLLSGLALESVGWGVVFSTEDKKEGVSAFLEKREPTFKGK
notes: pET16b, N-terminal His10-tag, expressed in E. coli Rosetta 2 (DE3), heat precipitation and Ni-NTA purified
Km [1]: 160 ± 20 µM | kcat/Km [1]: 3.26e+06 M⁻¹ s⁻¹ | Km [2]: 34 ± 4 µM | kcat/Km [2]: 4.38e+07 M⁻¹ s⁻¹ | Km [3]: 140 ± 10 µM | kcat/Km [3]: 9.94e+07 M⁻¹ s⁻¹ | Km [4]: 48 ± 5 µM | kcat/Km [4]: 3.94e+07 M⁻¹ s⁻¹ | Km [5]: 80 ± 10 µM | kcat/Km [5]: 3.16e+07 M⁻¹ s⁻¹

B2: Msed_0566 (Metallosphaera sedula DSM 5348) (protein)
chain: MDVILEKRKGYLLLTFNTGGRYNVFTTRFMIEMIDTLSEVEKIRDPHYLVIKGENGNFGAGADVKELLKANGDKEYAKVYFGHMKDLFVKMLSLNKVTIGLIEGVAYGASMELLLALDIVIAKRGTKFAAPGGKLGVFPPVLVSIGPYLLGHRTSRKLAMLGEELDTQGAINAGLIDYEVDDLEKGLLELLNRLKVMSPSAQVRMRKLILQSLIPHLEKAFDELATQVTSDEAREGISSFFSKTSPSWSSVGFS
notes: pET16b, His10-tagged, expressed in E. coli Rosetta 2 (DE3), Ni-NTA purified
Km [6]: 37 ± 2 µM | kcat/Km [6]: 39000 M⁻¹ s⁻¹ | Km [7]: 140 ± 30 µM | kcat/Km [7]: 2000 M⁻¹ s⁻¹ | Km [8]: 180 ± 60 µM | kcat/Km [8]: 16000 M⁻¹ s⁻¹ | Km [9]: 80 ± 30 µM | kcat/Km [9]: 19000 M⁻¹ s⁻¹

B3: Slip_2089 (Syntrophothermus lipocalidus DSM 12680) (protein)
chain: MEDKQKSVKCSIDDQGIAIVTINRPHALNALNREVFTELGKVFDELRDNPRARVVVLTGEGQKAFAAGSDITEMKECSVLEAREFAMLANRTQGKIETFPKPVIAAVNGFALGGGCEVAMACDIRIASSNAKFGQPEINLGIIPGGGGTQRLARLVGLGRAKELVYSGGIIDAQRAYEIGLVNKVVPAEALMSEALGLAAKIASKSMPVLMLAKVAFNHGFSMDLDKALQFEIECFAECFGTDDHTEGMSAFIERREPAFKDK
notes: as for B2
Km [10]: 160 ± 20 µM | kcat/Km [10]: 143000 M⁻¹ s⁻¹ | Km [11]: 350 ± 60 µM | kcat/Km [11]: 2000 M⁻¹ s⁻¹ | Km [12]: 1310 ± 310 µM | kcat/Km [12]: 41000 M⁻¹ s⁻¹ | Km [13]: 400 ± 50 µM | kcat/Km [13]: 138000 M⁻¹ s⁻¹ | Km [14]: 1010 ± 220 µM | kcat/Km [14]: 500 M⁻¹ s⁻¹ | Km [15]: 210 ± 40 µM | kcat/Km [15]: 562000 M⁻¹ s⁻¹

B4: Nmar_1308 (Nitrosopumilus maritimus SCM1) (protein)
chain: MSLVTTSTSDGICTVKINRPDKLNAMNTDVAKELIKTFEELNHNDDVKVIILTGEGEKAFSAGADIEYMSKISADESVEYAKTGQLVTATVELVKQPTIAAVNGFALGGGCELAMSCDIRIAADTAKLGQPEVTIGVPPGWGGTQRLMRIVGIAKAKELVYTGKMIKAEEAKEIGLVNHVVPLASLQEEALKMAQQIAGNSTMGVQMSKVAINKGRNADLDTGLGLEILAWRNCFTHPDRQERMTAFVNKSKK
notes: as for B2
Km [16]: 710 ± 70 µM | Vmax [16]: 11400 ± 392 µmol/min/mg | kcat/Km [16]: 8.09e+06 M⁻¹ s⁻¹ | Km [17]: 450 ± 30 µM | Vmax [17]: 3790 ± 111 µmol/min/mg | kcat/Km [17]: 4.25e+06 M⁻¹ s⁻¹ | Km [18]: 170 ± 30 µM | Vmax [18]: 38 µmol/min/mg | kcat/Km [18]: 113000 M⁻¹ s⁻¹ | Km [19]: 360 ± 60 µM | Vmax [19]: 1520 ± 92 µmol/min/mg | kcat/Km [19]: 2.12e+06 M⁻¹ s⁻¹ | Km [20]: 120 ± 20 µM | Vmax [20]: 47 µmol/min/mg | kcat/Km [20]: 198000 M⁻¹ s⁻¹
